Data: patent publication US20220153859A1 (ANOKION, published 2022)
Numbering of substitutions follows the chain as printed.

T1: Human glycophorin A on human erythrocytes (human, UniProt P02724 20-150)
T1 construct: whole, on cells; Target of the flow cytometry assays on human erythrocytes; also called human GPA; hGPA
T1 sequence (looked up): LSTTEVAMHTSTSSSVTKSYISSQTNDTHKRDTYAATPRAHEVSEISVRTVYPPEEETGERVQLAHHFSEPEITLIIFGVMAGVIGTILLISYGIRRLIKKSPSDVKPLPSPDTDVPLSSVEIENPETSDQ

T2: Human glycophorin A extract (hGPA extract) (human, UniProt P02724 20-150)
T2 construct: also called human GPA extracted from red blood cells (extract)
T2 sequence (looked up): T1 sequence (looked up)

B1: CDRL2_18 (Fab, V domains shown)
VH: QVQLVQSGAEVKKPGASVKVSCTASGFNIKDTYMLWVRQAPGQGLEWMGRIDPANANSRYDPKFQGRVTITADTSTNTAYMELSSLRSEDTAVYYCVDGYMFAYWGQGTLVTVSS
VL: DVVMTQTPLSLSVTPGQPASISCKSSQSLLYSNGKTYLHWLLQKPGQSPQRLIYLLNRLHSGVPDRFSGSGSGTDFTLKISRVEAEDVGVYYCVQGTHFPLTFGQGTKLEIKR
notes: copies: 1 + 1
B2: CDRL2_49 (Fab, V domains shown)
VH: B1 VH
VL: B1 VL with L59M, H60S
notes: column Notes: 'ELISA Hit'; copies: 1 + 1
B3: CDRL2_32 (Fab, V domains shown)
VH: B1 VH
VL: B1 VL with H60S
notes: copies: 1 + 1
B4: CDRH1_14 (Fab, V domains shown)
VH: B1 VH with K30R, D31N, T32I, M34L
VL: B1 VL with L56V, N57S, R58K, H60D
notes: column Notes: 'Duplicate ELISA hit'; copies: 1 + 1
B5: CDRH1_1 (Fab, V domains shown)
VH: B1 VH with K30R, D31A, M34I
VL: B1 VL with L56V, N57S, R58K, H60D
notes: copies: 1 + 1
B6: CDRH1_25 (Fab, V domains shown)
VH: B1 VH with D31H, T32V, M34I
VL: B1 VL with L56V, N57S, R58K, H60D
notes: copies: 1 + 1
B7: CDRH1_24 (Fab, V domains shown)
VH: B1 VH with D31T, T32V, M34I
VL: B1 VL with L56V, N57S, R58K, H60D
notes: copies: 1 + 1
B8: CDRL2_33 (Fab, V domains shown)
VH: B1 VH
VL: B1 VL with L56N, N57S
notes: copies: 1 + 1
B9: CDRH1_15 (Fab, V domains shown)
VH: B1 VH with K30R, D31K, M34I
VL: B1 VL with L56V, N57S, R58K, H60D
notes: copies: 1 + 1
B10: CDRL2_37 (Fab, V domains shown)
VH: B1 VH
VL: B1 VL with L56S
notes: copies: 1 + 1
B11: Humanized 10F7-M10 Fab (non-affinity matured) (Fab)
heavy: EVQLLESGGGLVQPGKSLRLSCKASGYTFNSYFMHWVRQAPGKGLEWVGMIRPNGGTTDYNEKFKNRFTLSVDKSKNTAYLQMNSLRAEDTAVYYCARWEGSYYALDYWGQGTASTKGPSVFPLAPSSKSTSGGTAALGCLVKDYFPEPVTVSWNSGALTSGVHTFPAVLQSSGLYSLSSVVTVPSSSLGTQTYICNVNHKPSNTKVDKKVEPKSC
light: EITLTQSPATLSLSPGERATLSCRASSNVKYMYWYQQKPGQAPRLWIYYTSNLASGIPDRFSGSGSGTDYTLTISRLEPEDFAVYYCQQFTSSPYTFGQGTKVEVKRTVAAPSVFIFPPSDEQLKSGTASVVCLLNNFYPREAKVQWKVDNALQSGNSQESVTEQDSKDSTYSLSSTLTLSKADYEKHKVYACEVTHQGLSSPVTKSFNRGEC
notes: Soluble Fab expressed in HEK cells; also called clone m10; wild-type 10F7-M10
B12: Humanized & affinity matured 10F7-M10 Fab clone L1+2-1 (Fab)
heavy: B11 heavy
light: B11 light with K30F, Y31F, Y48H, Y49H
notes: Soluble Fab from HEK cells; all domains other than VL are the same as wild-type 10F7-M10; also called FF-HH-N
B13: Humanized & affinity matured 10F7-M10 Fab clone L1+2-17 (Fab)
heavy: B11 heavy
light: B11 light with K30Y, Y31F, Y48H, Y49H, N52D
notes: Soluble Fab from HEK cells; all domains other than VL are the same as wild-type 10F7-M10; also called YF-HH-D
B14: Humanized & affinity matured 10F7-M10 Fab clone L1+2-8 (Fab)
heavy: B11 heavy
light: B11 light with K30I, Y31D, Y48H, Y49H, N52Y
notes: Soluble Fab from HEK cells; all domains other than VL are the same as wild-type 10F7-M10; also called ID-HH-Y
B15: Humanized & affinity matured 10F7-M10 Fab clone L1+2-28 (Fab)
heavy: B11 heavy
light: B11 light with K30Y, Y31W, Y48H, Y49H, N52D
notes: Soluble Fab from HEK cells; all domains other than VL are the same as wild-type 10F7-M10; also called YW-HH-D
B16: Humanized & affinity matured 10F7-M10 Fab clone L1+2-39 (Fab)
heavy: B11 heavy
light: B11 light with K30F, Y31F, Y48H, Y49H, N52V
notes: Soluble Fab from HEK cells; all domains other than VL are the same as wild-type 10F7-M10; also called FF-HH-V
B17: Humanized & affinity matured 10F7-M10 Fab clone L1+2-24 (Fab)
heavy: B11 heavy
light: B11 light with K30Q, Y31Q, Y48H, Y49H, N52I
notes: Soluble Fab from HEK cells; all domains other than VL are the same as wild-type 10F7-M10; also called QQ-HH-I
B18: Humanized & affinity matured 10F7-M10 Fab clone L1+2-15 (Fab)
heavy: B11 heavy
light: B11 light with K30F, Y48H, Y49H, N52W
notes: Soluble Fab from HEK cells; all domains other than VL are the same as wild-type 10F7-M10; also called FY-HH-W
B19: Humanized & affinity matured 10F7-M10 Fab clone L1+2-10 (Fab)
heavy: B11 heavy
light: B11 light with K30W, Y31F, Y48H, Y49H, N52E
notes: Soluble Fab from HEK cells; all domains other than VL are the same as wild-type 10F7-M10; also called WF-HH-E
B20: Humanized & affinity matured 10F7-M10 Fab clone L1+2-21 (Fab)
heavy: B11 heavy
light: B11 light with K30Y, Y31F, Y48H, Y49H, N52V
notes: Soluble Fab from HEK cells; all domains other than VL are the same as wild-type 10F7-M10; also called YF-HH-V
B21: Humanized & affinity matured 10F7-M10 Fab clone L1+2-35 (Fab)
heavy: B11 heavy
light: B11 light with K30Y, Y31W, Y48H, Y49H, N52E
notes: Soluble Fab from HEK cells; all domains other than VL are the same as wild-type 10F7-M10; also called YW-HH-E
B22: Humanized & affinity matured 10F7-M10 Fab clone L1+2-14 (Fab)
heavy: B11 heavy
light: B11 light with K30H, Y31Q, Y48H, Y49H, N52K
notes: Soluble Fab from HEK cells; all domains other than VL are the same as wild-type 10F7-M10; also called HQ-HH-K
B23: Humanized & affinity matured 10F7-M10 Fab clone L1+2-25 (Fab)
heavy: B11 heavy
light: B11 light with K30A, Y31W, Y49H, N52K
notes: also called L1 + 2-8-25; AW-YH-K

How the values were obtained:
[1] = target: T3, Cynomolgus glycophorin A on cynomolgus erythrocytes (cynomolgus monkey); assay: FACS (flow cytometry) on cynomolgus erythrocytes (cRBCs)
T3 construct: whole, on cells; also called cyno GPA; cyno erythrocytes
Summary of the method: (§1)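 After selection through next-generation-sequencing enrichment and phage ELISA screens, Fabs were expressed solubly in HEK cells. The highest-ranked ones were purified using CH1 resin. Their EC50 for binding human or cynomolgus erythrocytes came from flow cytometry.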

[2] = target: T1, Human glycophorin A on human …; assay: FACS (flow cytometry) on human erythrocytes (hRBCs)
Summary of the method: as §1

[3] = target: T2, Human glycophorin A extract (hGPA …); assay: Octet BLI, hGPA extract, apparent KD
[4] = target: T2, Human glycophorin A extract (hGPA …); assay: Biacore SPR, hGPA extract, apparent
[5] = target: T1, Human glycophorin A on human …; assay: flow cytometry (FACS) on human erythrocytes, soluble Fab
[6] = target: T2, Human glycophorin A extract (hGPA …); assay: Biacore SPR, hGPA extract, apparent KD
[7] = target: T2, Human glycophorin A extract (hGPA …); assay: Octet BLI, hGPA extract, apparent

| Binder | EC50 [1] [nM] | EC50 [2] [nM] | Kd [3] [nM] | koff [4] [s⁻¹] | kon [4] [M⁻¹ s⁻¹] | EC50 [5] [nM] | Kd [6] [nM] | koff [7] [s⁻¹] | kon [7] [M⁻¹ s⁻¹] |
| --- | --- | --- | --- | --- | --- | --- | --- | --- | --- |
| B1 | 8.3 | 2.5 |  |  |  |  |  |  |  |
| B2 | 13 | 4.4 |  |  |  |  |  |  |  |
| B3 | 11.1 | 4.2 |  |  |  |  |  |  |  |
| B4 | 10.8 | 4.2 |  |  |  |  |  |  |  |
| B5 | 11.6 | 4.3 |  |  |  |  |  |  |  |
| B6 | 10.2 | 3.1 |  |  |  |  |  |  |  |
| B7 | 10.6 | 3.1 |  |  |  |  |  |  |  |
| B8 | 8.3 | 4.4 |  |  |  |  |  |  |  |
| B9 | 10.6 | 3.1 |  |  |  |  |  |  |  |
| B10 | 10.1 | 2.8 |  |  |  |  |  |  |  |
| B11 |  |  | 140 | 0.00667 | 47300 | 73 | 141 | 0.0067 | 47000 |
| B12 |  |  | 5.9 | 0.00185 | 311000 | 3.3 | 5.95 | 0.0018 | 310000 |
| B13 |  |  | 6 | 0.000931 | 156000 | 3.4 | 5.97 | 0.00093 | 160000 |
| B14 |  |  | 11 | 0.00218 | 198000 | 14 | 11 | 0.0022 | 200000 |
| B15 |  |  | 3.5 | 0.00214 | 614000 | 3.7 | 3.49 | 0.0021 | 610000 |
| B16 |  |  | 4.8 | 0.00121 | 250000 | 2.7 | 4.82 | 0.0012 | 250000 |
| B17 |  |  | 21 | 0.00802 | 382000 | 23 | 21 | 0.008 | 380000 |
| B18 |  |  | 7 | 0.00155 | 222000 | 3.4 | 7 | 0.0016 | 220000 |
| B19 |  |  | 6.4 | 0.00143 | 222000 | 3.3 | 6.43 | 0.0014 | 220000 |
| B20 |  |  | 5.1 | 0.00132 | 257000 | 3.7 | 5.12 | 0.0013 | 260000 |
| B21 |  |  | 17 | 0.00136 | 81300 | 4.6 | 16.7 | 0.0014 | 81000 |
| B22 |  |  | 33 | 0.000568 | 17300 | 6.4 | 32.8 | 0.00057 | 17000 |
| B23 |  |  |  |  |  | 100 |  |  |  |
